Numbering of substitutions follows the chain as printed. Numbers in names are those of the source. Like-named read-outs stand apart in the source and are kept apart here.
Tests used:
[1] = biological target: T1, human IL-18 binding protein (IL-18BP) (human, UniProt O95998 31-194); assay: Octet BLI
T1 construct: also called hu IL-18BP; hIL18BP
T1 sequence (looked up): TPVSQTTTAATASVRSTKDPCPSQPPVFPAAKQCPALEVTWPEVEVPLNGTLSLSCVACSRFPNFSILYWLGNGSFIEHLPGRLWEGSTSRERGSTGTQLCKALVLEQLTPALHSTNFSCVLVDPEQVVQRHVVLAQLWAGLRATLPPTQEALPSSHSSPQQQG
Experimental: (§1) Octet 96red instrument was used to determine affinities of IL18 proteins to BP or receptors. 5-10 ug/ml analyte proteins were used for loading on Sartorius tips (AHC or SA). […] 120-180 s loading, 200 s association and 800 s dissociation were used for kinetics. 3-7 data points were used to calculate affinities.
Select G3/K53-substitution containing IL-18 variants and select G3/K53/N91-substitution containing TL-18 variants were tested for activity in the HEK-blue activity assay and for binding affinity to IL-18BP. As shown in the data of Table 15 and Table 16 below, each variant had similar or better activity than WT IL-18, and retained substantial activity in the presence of IL-18BP.

[2] = biological target: T2, IL-18 receptors on HEK-Blue IL-18 reporter cells (InvivoGen) (UniProt Q13478 19-541; O95256 20-599); assay: cell-based or functional assay
T2 sequence (looked up) 1: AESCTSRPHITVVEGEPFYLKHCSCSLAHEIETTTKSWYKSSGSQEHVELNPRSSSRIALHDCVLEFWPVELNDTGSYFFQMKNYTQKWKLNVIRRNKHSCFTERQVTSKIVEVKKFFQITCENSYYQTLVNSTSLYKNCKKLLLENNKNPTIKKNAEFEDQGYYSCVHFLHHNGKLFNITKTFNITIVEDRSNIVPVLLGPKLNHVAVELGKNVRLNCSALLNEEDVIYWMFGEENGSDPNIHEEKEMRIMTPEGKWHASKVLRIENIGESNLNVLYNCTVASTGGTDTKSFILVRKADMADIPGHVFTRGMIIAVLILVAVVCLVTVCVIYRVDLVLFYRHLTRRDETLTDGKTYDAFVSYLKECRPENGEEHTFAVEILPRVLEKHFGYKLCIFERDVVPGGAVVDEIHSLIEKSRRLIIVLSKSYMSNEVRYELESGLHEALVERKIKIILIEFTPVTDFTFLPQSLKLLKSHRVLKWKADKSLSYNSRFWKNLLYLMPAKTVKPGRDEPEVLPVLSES
T2 sequence (looked up) 2: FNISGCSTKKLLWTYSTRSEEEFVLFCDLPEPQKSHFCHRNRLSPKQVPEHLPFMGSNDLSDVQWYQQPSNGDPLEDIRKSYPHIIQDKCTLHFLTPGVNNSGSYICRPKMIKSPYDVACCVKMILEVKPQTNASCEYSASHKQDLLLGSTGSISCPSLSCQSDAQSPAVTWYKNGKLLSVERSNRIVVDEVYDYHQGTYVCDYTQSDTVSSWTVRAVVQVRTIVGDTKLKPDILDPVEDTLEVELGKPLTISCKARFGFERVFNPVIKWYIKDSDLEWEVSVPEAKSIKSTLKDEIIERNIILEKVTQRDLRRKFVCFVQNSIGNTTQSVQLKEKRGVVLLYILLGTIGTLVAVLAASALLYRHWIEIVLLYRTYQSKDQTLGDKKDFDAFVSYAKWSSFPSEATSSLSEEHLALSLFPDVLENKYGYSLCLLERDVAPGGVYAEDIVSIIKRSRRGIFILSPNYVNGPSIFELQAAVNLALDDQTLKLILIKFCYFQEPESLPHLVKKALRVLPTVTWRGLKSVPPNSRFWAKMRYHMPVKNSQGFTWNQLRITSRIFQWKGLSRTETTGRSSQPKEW

[3] = biological target: T1, human IL-18 binding protein (IL-18BP); assay: cell-based or functional assay
[4] = biological target: T3, interleukin 18 binding protein (IL-18BP) (UniProt O95998 31-194); assay: cell-based or functional assay
T3 sequence (looked up): T1 sequence (looked up)

[5] = biological target: T4, IL-18 receptor (IL-18Rα and IL-18Rβ) (UniProt Q13478 19-541; O95256 20-599, limits assumed); assay: cell-based or functional assay
T4 sequence (looked up) 1: T2 sequence (looked up) 1
T4 sequence (looked up) 2: T2 sequence (looked up) 2

[6] = biological target: T5, IL-18 receptors on HEK-Blue IL-18 reporter cells (UniProt Q13478 19-541; O95256 20-599, limits assumed); assay: cell-based or functional assay
T5 sequence (looked up) 1: T2 sequence (looked up) 1
T5 sequence (looked up) 2: T2 sequence (looked up) 2

[7] = biological target: T6, human IL-18 binding protein (human, UniProt O95998 31-194); assay: cell-based or functional assay
T6 sequence (looked up): T1 sequence (looked up)

[8] = biological target: T5, IL-18 receptors on HEK-Blue IL-18 …; assay: cell-based or functional assay; remark: listed apart in the source
[9] = biological target: T6, human IL-18 binding protein; assay: cell-based or functional assay; remark: listed apart in the source
[10] = biological target: T7, mouse IL-18 binding protein (mouse, UniProt Q9Z0M9 29-193); assay: Octet BLI, monoFc scaffold
T7 construct: also called Mouse IL18BP; Mouse IL-18BP
T7 sequence (looked up): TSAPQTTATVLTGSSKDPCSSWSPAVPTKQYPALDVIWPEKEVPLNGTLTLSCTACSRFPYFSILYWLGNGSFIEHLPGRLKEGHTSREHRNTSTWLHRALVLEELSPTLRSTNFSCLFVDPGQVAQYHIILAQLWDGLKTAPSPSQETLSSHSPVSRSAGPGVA
Experimental: as §1
(§2) Several mouse variants were next tested for binding affinity to mouse IL-18R alpha and mouse IL-18BP.

[11] = biological target: T8, mouse IL-18 receptor alpha (mouse, UniProt Q61098 20-326, limits assumed); assay: Octet BLI, monoFc scaffold
T8 construct: also called Mouse IL18Ra; mouse IL-18R alpha
T8 sequence (looked up): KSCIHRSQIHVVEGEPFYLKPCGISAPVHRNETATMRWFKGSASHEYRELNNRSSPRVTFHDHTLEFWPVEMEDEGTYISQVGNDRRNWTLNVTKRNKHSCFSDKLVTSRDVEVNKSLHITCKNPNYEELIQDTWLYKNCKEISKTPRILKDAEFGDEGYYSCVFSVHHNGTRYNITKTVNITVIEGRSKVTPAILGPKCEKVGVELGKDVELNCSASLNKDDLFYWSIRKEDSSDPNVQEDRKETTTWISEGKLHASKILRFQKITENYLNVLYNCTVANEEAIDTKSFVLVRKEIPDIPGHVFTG
Experimental: as §1, §2

B1: IL-18 variant G3A, N91L, K53S (ligand)
chain: YFAKLESKLSVIRNLNDQVLFIDQGNRPLFEDMTDSDMRDNAPRTIFIISMYSDSQPRGMAVTISVKSEKISTLSSENKIISFKEMNPPDLIKDTKSDIIFFQRSVPGHDNKMQFESSSYEGYFLASEKERDLFKLILKKEDELGDRSIMFTVQNED
Kd [1]: 4.8 nM | koff [1]: 0.00103 s⁻¹ | kon [1]: 216000 M⁻¹ s⁻¹ | HEK-Blue Ec50 (pM), -IL-18BP [2]: 0.71 pM | HEK-Blue Ec50 (pM), +IL-18BP (50 nM) [3]: 5.82 pM

B2: IL-18 variant G3P, E6K, D54Y, S55P, T63S, N91S, R104Q, Q154R (ligand)
chain: B1 chain with A3P, E6K, S53K, D54Y, S55P, T63S, L91S, R104Q, Q154R
EC50 (pM) + 300 nM BP, HEK-blue re-screening [4]: 2.58 pM | Ratio (HEK-blue EC50, + 300 nM BP against - BP) [4]: 2.4 | EC50 (pM) - BP, HEK-blue re-screening [5]: 1.09 pM

B3: IL-18 variant G3P, E6V, K53A, D54W, S55P, T63S, N91L, R104K (ligand)
chain: B1 chain with A3P, E6V, S53A, D54W, S55P, T63S, R104K
EC50 (pM) + 300 nM BP, HEK-blue re-screening [4]: 15.8 pM | Ratio (HEK-blue EC50, + 300 nM BP against - BP) [4]: 1.9 | EC50 (pM) - BP, HEK-blue re-screening [5]: 8.21 pM

B4: human IL-18 variant G3V/E6K/K53A (ligand)
chain: B1 chain with A3V, E6K, S53A, L91N
HEK-blue EC50 (pM) - BP [6]: 0.038 pM | HEK-blue EC50 (pM) + 300 nM BP [7]: 1.68 pM | HEK-blue EC50 (pM) - BP [8]: 0.05 pM | HEK-blue EC50 (pM) + 1000 nM BP [9]: 1.26 pM

B5: human IL-18 variant G3V/M60K (ligand)
chain: B1 chain with A3V, S53K, M60K, L91N
HEK-blue EC50 (pM) - BP [6]: 0.042 pM | HEK-blue EC50 (pM) + 300 nM BP [7]: 0.507 pM | HEK-blue EC50 (pM) - BP [8]: 1.43 pM | HEK-blue EC50 (pM) + 1000 nM BP [9]: 1.05 pM

B6: IL-18 variant G3Q, E6H, K53T, D54S, S55Y, N91Y, R104K (ligand)
chain: B1 chain with A3Q, E6H, S53T, D54S, S55Y, L91Y, R104K
EC50 (pM) + 300 nM BP, HEK-blue re-screening [4]: 4.69 pM | Ratio (HEK-blue EC50, + 300 nM BP against - BP) [4]: 1.8 | EC50 (pM) - BP, HEK-blue re-screening [5]: 2.63 pM

B7: IL-18 variant G3F, N91E, K53S (ligand)
chain: B1 chain with A3F, L91E
notes: also called G3F/K53S/N91E
Kd [1]: 9.1 nM | koff [1]: 0.00195 s⁻¹ | kon [1]: 213000 M⁻¹ s⁻¹ | HEK-Blue Ec50 (pM), -IL-18BP [2]: 2.55 pM | HEK-Blue Ec50 (pM), +IL-18BP (50 nM) [3]: 10.7 pM

B8: IL-18 variant G3R, N91A, K53S (ligand)
chain: B1 chain with A3R, L91A
notes: also called G3R/K53S/N91A
Kd [1]: 3.4 nM | koff [1]: 0.000728 s⁻¹ | kon [1]: 213000 M⁻¹ s⁻¹ | HEK-Blue Ec50 (pM), -IL-18BP [2]: 0.25 pM | HEK-Blue Ec50 (pM), +IL-18BP (50 nM) [3]: 2.27 pM

B9: IL-18 variant G3R, N91M, K53A (ligand)
chain: B1 chain with A3R, S53A, L91M
notes: also called G3R/K53A/N91M
Kd [1]: 1.5 nM | koff [1]: 0.00031 s⁻¹ | kon [1]: 208000 M⁻¹ s⁻¹ | HEK-Blue Ec50 (pM), -IL-18BP [2]: 0.06 pM | HEK-Blue Ec50 (pM), +IL-18BP (50 nM) [3]: 1.67 pM

B10: IL-18 variant G3R, N91S, K53A (ligand)
chain: B1 chain with A3R, S53A, L91S
Kd [1]: 0.9 nM | koff [1]: 0.000162 s⁻¹ | kon [1]: 191000 M⁻¹ s⁻¹ | HEK-Blue Ec50 (pM), -IL-18BP [2]: 0.05 pM | HEK-Blue Ec50 (pM), +IL-18BP (50 nM) [3]: 2.8 pM

B11: IL-18 variant G3K, N91I, K53S (ligand)
chain: B1 chain with A3K, L91I
Kd [1]: 1.9 nM | koff [1]: 0.000406 s⁻¹ | kon [1]: 218000 M⁻¹ s⁻¹ | HEK-Blue Ec50 (pM), -IL-18BP [2]: 0.2 pM | HEK-Blue Ec50 (pM), +IL-18BP (50 nM) [3]: 7.05 pM

B12: Comparator 5 on monoFc scaffold (Fc fusion, not shown: small tags and cut ends)
chain: HFGRLHCTTAVIRNINDQVLFVDKRQPVFEDMTDIDQSASEPQTRLIIYAYGDSRARGKAVTLSVKDSKMSTLSCKNKIISFEEMDPPENIDDIQSDLIFFQKRVPGHNKMEFESSLYEGHFLACQKEDDAFKLILKKKDENGDKSVMFTLTNLHQSNGGPSVFLFPPKPKDTLMISRTPEVTCVVVDVSHEDPEVKFNWYVDGVEVHNAKTKPREEQYNSTYRVVSVLTVLHQDWLNGKEYKCKVSNKALPAPIEKTISKAKGQPREPQVYTLPPSREEMTKNQVNLTCLVKGFYPSDIAVEWESNGQPENNYKTTPPVLDSDGSFFLNSTLTVDKSRWQQGNVFSCSVMHEALHNHYTQKSLSLS
binding result [10]: no binding | Kd [11]: 1.27 nM

B13: mouse IL-18 G3V/L59M on monoFc scaffold (Fc fusion, not shown: small tags and cut ends)
chain: B12 chain with H1N, G3V, C7S, A50M, G52K, R55E, A56V, K59M, C75S, C125S
Kd [10]: 2.47 nM | Kd [11]: 17.4 nM

B14: mouse IL-18 G3T/L59K on monoFc scaffold (Fc fusion, not shown: small tags and cut ends)
chain: B12 chain with H1N, G3T, C7S, A50M, G52K, R55E, A56V, C75S, C125S
binding result [10]: no binding | Kd [11]: 12.3 nM

B15: mouse IL-18 G3V/H6K/L59K on monoFc scaffold (Fc fusion, not shown: small tags and cut ends)
chain: B12 chain with H1N, G3V, H6K, C7S, A50M, G52K, R55E, A56V, C75S, C125S
binding result [10]: no binding | Kd [11]: 24.2 nM

B16: mouse IL-18 G3V/L59K on monoFc scaffold (Fc fusion, not shown: small tags and cut ends)
chain: B12 chain with H1N, G3V, C7S, A50M, G52K, R55E, A56V, C75S, C125S
binding result [10]: no binding | Kd [11]: 14.5 nM

B17: mouse IL-18 G3T/H6K/L59K on monoFc scaffold (Fc fusion, not shown: small tags and cut ends)
chain: B12 chain with H1N, G3T, H6K, C7S, A50M, G52K, R55E, A56V, C75S, C125S
binding result [10]: no binding | Kd [11]: 12.8 nM

B18: mouse IL-18 G3V/L59R on monoFc scaffold (Fc fusion, not shown: small tags and cut ends)
chain: B12 chain with H1N, G3V, C7S, A50M, G52K, R55E, A56V, K59R, C75S, C125S
binding result [10]: no binding | Kd [11]: 51.5 nM

From patent US20240182536A1 (MURAL ONCOLOGY, published 2024)
